Target: Env-CD4-CCR5 complex (Example II) (UniProt P01730)
Test: method not stated; reference is X5-Fab

Sequence of Env-CD4-CCR5 complex (Example II) (P51681 whole entry, chain 2 of 2, other chains not shown): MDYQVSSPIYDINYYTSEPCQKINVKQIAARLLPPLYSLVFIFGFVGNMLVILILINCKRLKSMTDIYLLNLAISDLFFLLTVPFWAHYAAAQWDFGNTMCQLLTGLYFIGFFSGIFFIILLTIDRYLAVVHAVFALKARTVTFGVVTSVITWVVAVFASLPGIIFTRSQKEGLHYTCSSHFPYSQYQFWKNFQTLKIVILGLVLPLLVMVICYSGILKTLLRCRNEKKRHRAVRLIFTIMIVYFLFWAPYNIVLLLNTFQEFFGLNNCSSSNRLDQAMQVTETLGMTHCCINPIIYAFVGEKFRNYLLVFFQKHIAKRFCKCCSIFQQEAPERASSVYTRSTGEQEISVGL

B1: FabS (Fab, V domains shown)
VH: VQLLEQSGAEVKKPGSSVQVSCKASGGTFSMYGFNWVRQAPGHGLEWMGGIIPIFGTSNYAQKFRGRVTFTADQATSTAYMELTNLRSDDTAVYYCARDFGPDWEDGDSYDGSGRGFFDFWGQGTLVTVSS
VL: ELVLTQSPGTLSLSAGERATLSCRASQSVSSGSLAWYQQKPGQAPRLLIYGASTRATGIPDRFSGSGSGTDFTLTIGRLEPEDLAVYYCQQYGTSPYTFGQGTKLEIKR
For B1, the fold increased affinity compared to the original X5-Fab was 5 fold.

Reference: US20040259075A1
